Test results taken from article PMC7527728, “CPSF6-Dependent Targeting of Speckle-Associated Domains Distinguishes Primate from Nonprimate Lentiviral Integration” (mBio, 2020).
Primed or numbered codes have the meaning given here. Ends that are not written are not given here. FITC′ = fluorescein isothiocyanate label; Ahx = NCCCCCC(=O)O

Legend:
Assay in all cases: fluorescence polarisation; 150 nM FITC-Ahx-labelled peptide mixed with increasing capsid NTD protein (2 μM to 2 mM) in 50 mM Tris-HCl pH 8.0, 50 mM NaCl, 384-well plates; one-site specific binding model; the EIAV constants are called apparent
Settings in all cases: both partners purified
CPSF6_(276–290) peptide [1] = target: T1, CPSF6_(276–290) peptide (human, N-terminal fluorescein isothiocyanate (FITC)-Ahx)
T1 construct: also called CPSF6 peptide; fluorescently labeled CPSF6_(276–290) peptide; source: synthetic peptide (GenScript)

[2] = target: T2, CPSF6_(276–290/F284A) peptide (human, F284A (stands in the printed letters))
T2 construct: cleavage and polyadenylation specificity factor 6 (CPSF6), human, residues 276-290 counted on the 551-residue isoform CPSF6[551], with F284A; source: synthetic peptide (GenScript)

CPSF6_(276–290) peptide [3] = target: T1, CPSF6_(276–290) peptide; remark: listed apart in the source

Binder	Kd (CPSF6_(276–290) peptide [1])	Kd [2]	Kd (CPSF6_(276–290) peptide [3])
BIV capsid N-terminal domain (NTD) protein (domain or fragment) PAITTQDGTPRFDPDLMKQLKIWSDATERNGVDLHAVNILGVITANLVQEEIKLLLNSTPKWRLDVQLIESKVREKENAHRTWKQHHPEAPKTDEIIGKGLSSAEQATLISVECRETFRQWVLQAAMEVAQAKHATPG	> 2 mM	> 3 mM	> 5 mM
FIV capsid N-terminal domain (NTD) protein (domain or fragment) PIQTVNGVPQYVALDPKMVSIFMEKAREGLGGEEVQLWFTAFSANLTPTDMATLIMAAPGCAADKEILDESLKQLTAEYDRTHPPDAPRPLPYFTAAEIMGIGLTQEQQAEARFAPARMQCRAWYLEALGKLAAIKA	> 2 mM	> 7 mM	> 4 mM
MLV capsid N-terminal domain (NTD) protein (domain or fragment) PLRAGGNGQLQYWPFSSSDLYNWKNNNPSFSEDPGKLTALIESVLITHQPTWDDCQQLLGTLLTGEEKQRVLLEARKAVRGDDGRPTQLPNEVDAAFPLERPDWDYTTQAGRNHLVHYRQLLLAGLQNAGRS	> 2 mM	–	> 5 mM
EIAV capsid N-terminal domain (NTD) protein (domain or fragment) PIMIDGAGNRNFRPLTPRGYTTWVNTIQTNGLLNEASQNLFGILSVDCTSEEMNAFLDVVPGQAGQKQILLDAIDKIADDWDNRHPLPNAPLVAPPQGPIPMTARFIRGLGVPRERQMEPAFDQFRQTYRQWIIEAMSEGIKVMIG	–	0.466 mM	–
